Data: patent publication US20230407373A1 (priority 2020, published 2023)
“Also recorded” adds a separate entry of the source. Read-outs that look alike come from different tables or passages of the source.

Legend:
[1] = system: SARS-CoV-2 gRNA and sgRNAs; format: binding; settings: for target (unweighted spectral count in RNP capture): Probe II capture, LC-MS/MS LFQ; for background (unweighted spectral count in control): no-probe control pull-down, used as background for Probe II
[2] = system: gRNA of HCoV-OC43; format: binding; settings: for target (spectral count) / background (spectral count): type g_36_m, 36 hpi, Probe I; for target (spectral count): HCoV-OC43-infected HCT-8 cells; for background (spectral count): uninfected-probe control; for target (spectral count, OC43 Probe I RNP capture) / background (spectral count, no-probe control): type n_48_v: 48 hours post-infection; for target (spectral count, OC43 Probe I RNP capture): infected cells, unweighted spectral count; for background (spectral count, no-probe control): no-probe control on infected cells
[3] = system: HCoV-OC43 gRNA and sgRNA; format: binding; settings: for target (unweighted spectral count, OC43 Probe II capture) / target (unweighted spectral count): tested against no-probe control; for target (unweighted spectral count, OC43 Probe II capture): FDR<10%; for target (unweighted spectral count): OC43 Probe II, infected cells; for target (unweighted spectral count, OC43 Probe II) / background (unweighted spectral count, no-probe control): type n_48_v, 48 hpi; for target (unweighted spectral count, OC43 Probe II): OC43 Probe II capture on infected cells; for background (unweighted spectral count, no-probe control): no-probe control on infected cells; for target (spectral count) / background (spectral count): type s_36_m, Probe II; for target (spectral count): HCoV-OC43-infected HCT-8 cells; for background (spectral count): uninfected-probe control
[4] = system: SARS-CoV-2 gRNA; format: binding; settings: for target (unweighted spectral count of the protein in the RNP capture): LC-MS/MS, Probe I sample (first 199 lines of Table 2)
[5] = system: SARS-CoV-2; format: cell-based; settings: for change in viral RNA levels (gRNA, N sgRNA) after siRNA depletion: Calu-3 cells, 50 nM siRNA, RT-qPCR, relative to siNC

Row | Molecule | enrichment in SARS-CoV-2 Probe II RNP capture [1] | target (unweighted spectral count in RNP capture) ([1]; […]) | background (unweighted spectral count in control) [1] | target (spectral count) [2] | background (spectral count) [2] | target (spectral count, OC43 Probe I RNP capture) [2] | background (spectral count, no-probe control) [2] | target (unweighted spectral count, OC43 Probe II capture) ([3]; 36 hpi, type n_36_v) | target (unweighted spectral count) ([3]; 12 hpi (type n_12_v)) | target (unweighted spectral count) ([3]; 24 hpi (type n_24_v)) | target (unweighted spectral count, OC43 Probe II) [3] | background (unweighted spectral count, no-probe control) [3] | target (spectral count) ([3]; 36 hpi) | background (spectral count) ([3]; 36 hpi) | enrichment in SARS-CoV-2 Probe I RNP capture [4] | target (unweighted spectral count of the protein in the RNP capture) [4] | change in viral RNA levels (gRNA, N sgRNA) after siRNA depletion [5] | also measured
1 | FUBP3: host protein, UniProt Q96I24 (protein, UniProt Q96I24 2-572, looked up) Far upstream element-binding …: AELVQGQSAPVGMKAEGFVDALHRVRQIAAKIDSIPHLNNSTPLVDPSVYGYGVQKRPLDDGVGNQLGALVHQRTVITEEFKVPDKMVGFIIGRGGEQISRIQAESGCKIQIASESSGIPERPCVLTGTPESIEQAKRLLGQIVDRCRNGPGFHNDIDSNSTIQEILIPASKVGLVIGRGGETIKQLQERTGVKMVMIQDGPLPTGADKPLRITGDAFKVQQAREMVLEIIREKDQADFRGVRGDFNSRMGGGSIEVSVPRFAVGIVIGRNGEMIKKIQNDAGVRIQFKPDDGISPERAAQVMGPPDRCQHAAHIISELILTAQERDGFGGLAAARGRGRGRGDWSVGAPGGVQEITYTVPADKCGLVIGKGGENIKSINQQSGAHVELQRNPPPNSDPNLRRFTIRGVPQQIEVARQLIDEKVGGTNLGAPGAFGQSPFSQPPAPPHQNTFPPRSSGCFPNMAAKVNGNPHSTPVSGPPAFLTQGWGSTYQAWQQPTQQVPSQQSQPQSSQPNYSKAWEDYYKKQSHAASAAPQASSPPDYTMAWAEYYRQQVAFYGQTLGQAQAHSQEQ | enriched; also recorded: found in the SARS-CoV-2 experiments | 173 | 1 | 49 | 9 | 47 | 3 | 42 | 11 | 27 | 71 | 3 | 42 | 6 | enriched; also recorded: found in the SARS-CoV-2 experiments | 94 | increased the viral RNA levels | enrichment / detection in HCoV-OC43 Probe I RNP capture ([2]; infected HCT-8 cells): enriched; enrichment / detection in HCoV-OC43 Probe II RNP capture ([3]; infected HCT-8 cells): enriched
2 | CSDE1: host protein, UniProt O75534 (protein, UniProt O75534 1-798, looked up) Cold shock domain-containing …: MSFDPNLLHNNGHNGYPNGTSAALRETGVIEKLLTSYGFIQCSERQARLFFHCSQYNGNLQDLKVGDDVEFEVSSDRRTGKPIAVKLVKIKQEILPEERMNGQVVCAVPHNLESKSPAAPGQSPTGSVCYERNGEVFYLTYTPEDVEGNVQLETGDKINFVIDNNKHTGAVSARNIMLLKKKQARCQGVVCAMKEAFGFIERGDVVKEIFFHYSEFKGDLETLQPGDDVEFTIKDRNGKEVATDVRLLPQGTVIFEDISIEHFEGTVTKVIPKVPSKNQNDPLPGRIKVDFVIPKELPFGDKDTKSKVTLLEGDHVRFNISTDRRDKLERATNIEVLSNTFQFTNEAREMGVIAAMRDGFGFIKCVDRDVRMFFHFSEILDGNQLHIADEVEFTVVPDMLSAQRNHAIRIKKLPKGTVSFHSHSDHRFLGTVEKEATFSNPKTTSPNKGKEKEAEDGIIAYDDCGVKLTIAFQAKDVEGSTSPQIGDKVEFSISDKQRPGQQVATCVRLLGRNSNSKRLLGYVATLKDNFGFIETANHDKEIFFHYSEFSGDVDSLELGDMVEYSLSKGKGNKVSAEKVNKTHSVNGITEEADPTIYSGKVIRPLRSVDPTQTEYQGMIEIVEEGDMKGEVYPFGIVGMANKGDCLQKGESVKFQLCVLGQNAQTMAYNITPLRRATVECVKDQFGFINYEVGDSKKLFFHVKEVQDGIELQAGDEVEFSVILNQRTGKCSACNVWRVCEGPKAVAAPRPDRLVNRLKNITLDDASAPRLMVLRQPRGPDNSMGFGAERKIRQAGVID | enriched | 92 | 1 | – | – | 20 | 1 | – | – | 18 | 21 | 1 | 24 | 3 | enriched | 37 | – | antiviral or proviral role of the host protein indicated by knockdown [5]: proviral effects
3 | HDLBP: host protein, UniProt Q00341 (protein, UniProt Q00341 2-1268, looked up) Vigilin: SSVAVLTQESFAEHRSGLVPQQIKVATLNSEEESDPPTYKDAFPPLPEKAACLESAQEPAGAWGNKIRPIKASVITQVFHVPLEERKYKDMNQFGEGEQAKICLEIMQRTGAHLELSLAKDQGLSIMVSGKLDAVMKARKDIVARLQTQASATVAIPKEHHRFVIGKNGEKLQDLELKTATKIQIPRPDDPSNQIKITGTKEGIEKARHEVLLISAEQDKRAVERLEVEKAFHPFIAGPYNRLVGEIMQETGTRINIPPPSVNRTEIVFTGEKEQLAQAVARIKKIYEEKKKKTTTIAVEVKKSQHKYVIGPKGNSLQEILERTGVSVEIPPSDSISETVILRGEPEKLGQALTEVYAKANSFTVSSVAAPSWLHRFIIGKKGQNLAKITQQMPKVHIEFTEGEDKITLEGPTEDVNVAQEQIEGMVKDLINRMDYVEINIDHKFHRHLIGKSGANINRIKDQYKVSVRIPPDSEKSNLIRIEGDPQGVQQAKRELLELASRMENERTKDLIIEQRFHRTIIGQKGERIREIRDKFPEVIINFPDPAQKSDIVQLRGPKNEVEKCTKYMQKMVADLVENSYSISVPIFKQFHKNIIGKGGANIKKIREESNTKIDLPAENSNSETIIITGKRANCEAARSRILSIQKDLANIAEVEVSIPAKLHNSLIGTKGRLIRSIMEECGGVHIHFPVEGSGSDTVVIRGPSSDVEKAKKQLLHLAEEKQTKSFTVDIRAKPEYHKFLIGKGGGKIRKVRDSTGARVIFPAAEDKDQDLITIIGKEDAVREAQKELEALIQNLDNVVEDSMLVDPKHHRHFVIRRGQVLREIAEEYGGVMVSFPRSGTQSDKVTLKGAKDCVEAAKKRIQEIIEDLEAQVTLECAIPQKFHRSVMGPKGSRIQQITRDFSVQIKFPDREENAVHSTEPVVQENGDEAGEGREAKDCDPGSPRRCDIIIISGRKEKCEAAKEALEALVPVTIEVEVPFDLHRYVIGQKGSGIRKMMDEFEVNIHVPAPELQSDIIAITGLAANLDRAKAGLLERVKELQAEQEDRALRSFKLSVTVDPKYHPKIIGRKGAVITQIRLEHDVNIQFPDKDDGNQPQDQITITGYEKNTEAARDAILRIVGELEQMVSEDVPLDHRVHARIIGARGKAIRKIMDEFKVDIRFPQSGAPDPNCVTVTGLPENVEEAIDHILNLEEEYLADVVDSEALQVYMKPPAHEEAKAPSRGFVVRDAPWTASSSEKAPDMSSSEEFPSFGAQVAPKTLPWGPKR | – | – | – | 26 | 3 | 16 | 2 | – | 11 | 24 | 50 | 2 | 36 | 1 | – | 23 | increased the viral RNA levels | –
4 | SF1: host protein, UniProt Q15637 (protein, UniProt Q15637 2-639, looked up) Splicing factor 1: ATGANATPLDFPSKKRKRSRWNQDTMEQKTVIPGMPTVIPPGLTREQERAYIVQLQIEDLTRKLRTGDLGIPPNPEDRSPSPEPIYNSEGKRLNTREFRTRKKLEEERHNLITEMVALNPDFKPPADYKPPATRVSDKVMIPQDEYPEINFVGLLIGPRGNTLKNIEKECNAKIMIRGKGSVKEGKVGRKDGQMLPGEDEPLHALVTANTMENVKKAVEQIRNILKQGIETPEDQNDLRKMQLRELARLNGTLREDDNRILRPWQSSETRSITNTTVCTKCGGAGHIASDCKFQRPGDPQSAQDKARMDKEYLSLMAELGEAPVPASVGSTSGPATTPLASAPRPAAPANNPPPPSLMSTTQSRPPWMNSGPSESRPYHGMHGGGPGGPGGGPHSFPHPLPSLTGGHGGHPMQHNPNGPPPPWMQPPPPPMNQGPHPPGHHGPPPMDQYLGSTPVGSGVYRLHQGKGMMPPPPMGMMPPPPPPPSGQPPPPPSGPLPPWQQQQQQPPPPPPPSSSMASSTPLPWQQNTTTTTTSAGTGSIPPWQQQQAAAAASPGAPQMQGNPTMVPLPPGVQPPLPPGAPPPPPPPPPGSAGMMYAPPPPPPPPMDPSNFVTMMGMGVAGMPPFGMPPAPPPPPPQN | – | – | – | 12 | 2 | 12 | 1 | 8 | – | – | – | – | 8 | 1 | – | 17 | – | target (unweighted spectral count of the protein in the RNP capture experiment) ([1]; […], LC-MS/MS label-free quantification, probe pool not given): 6; back-ground (unweighted spectral count of the protein in the control experiment) ([1]; protein background of the control (e.g. no-probe) experiment, […]): 1; target (unweighted spectral count, OC43 Probe II capture) ([3]; 24 hpi, type n_24_v): 4
